This assay concerns the target His-tagged full-length ActA (ActA[1–584Rhis]) (Listeria monocytogenes). In words: co-sedimentation.

Sequence of His-tagged full-length ActA (ActA[1–584Rhis]) (Listeria monocytogenes) (P33379 30-613 limits assumed): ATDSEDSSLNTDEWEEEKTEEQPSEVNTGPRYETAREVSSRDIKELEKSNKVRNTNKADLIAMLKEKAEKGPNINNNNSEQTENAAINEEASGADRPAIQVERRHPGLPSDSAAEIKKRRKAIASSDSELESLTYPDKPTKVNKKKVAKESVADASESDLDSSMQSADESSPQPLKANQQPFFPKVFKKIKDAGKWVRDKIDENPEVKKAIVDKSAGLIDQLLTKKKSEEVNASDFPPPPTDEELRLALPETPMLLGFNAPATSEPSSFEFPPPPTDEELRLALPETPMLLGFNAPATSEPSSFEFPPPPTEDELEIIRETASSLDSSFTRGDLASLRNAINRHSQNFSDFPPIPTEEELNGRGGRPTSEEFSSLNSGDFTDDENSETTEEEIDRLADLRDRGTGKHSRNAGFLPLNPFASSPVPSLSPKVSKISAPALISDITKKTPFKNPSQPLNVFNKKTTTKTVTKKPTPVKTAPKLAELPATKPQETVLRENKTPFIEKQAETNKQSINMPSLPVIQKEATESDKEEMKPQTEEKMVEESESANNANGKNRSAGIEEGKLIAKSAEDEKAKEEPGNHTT

“His-tagged human vasodilator-stimulated phosphoprotein (VASP) (from UniProt P50552 1-380) (natural protein)” gave a percent bound greater than 90%.

Values taken from article PMC2173428.
